Experimental data taken from patent US6828106.

Biological target: T1, reporter peptide (Example 9, TEV) (not fully specified)
T1 chain: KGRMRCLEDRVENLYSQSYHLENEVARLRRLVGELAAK

B1: TEV (Tobacco Etch Virus) protease (protein)
chain: GESLFKGPRDYNPISSTICHLTNESDGHTTSLYGIGFGPFIITNKHLFRRNNGTLLVQSLHGVFKVKNTTTLQQHLIDGRDMIIIRMPKDFPPFPQKLKFREPQREERICLVTTNFQTKSMSSMVSDTSCTFPSSDGIFWKHWIQTKDGQCGSPLVSTRDGFIVGIHSASNFTNTNNYFTSVPKNFMELLTNQEAQQWVSGWRLNADSVLWGGHKVFMSKPEEPFQPVKEATQLMNELVYSQ
Km of TEV protease by FP analysis: 36 µM | Km of TEV protease by FRET analysis: 36 µM
